One block for each binder: values may come before it.
Key:
[1] = target: T1, mouse ICOS-mFc (Chimerigen) (mouse, UniProt Q9WVS0 21-141, limits assumed); assay: DELFIA ELISA, coated mouse ICOS-mFc, N=2
T1 construct: Bought fusion; also called mICOS; recombinant mouse ICOS protein; not shown: mouse Fc
T1 sequence: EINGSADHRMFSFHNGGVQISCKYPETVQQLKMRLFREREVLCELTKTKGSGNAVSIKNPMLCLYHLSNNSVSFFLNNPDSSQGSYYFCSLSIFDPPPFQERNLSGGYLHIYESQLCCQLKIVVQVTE
Method: (§1) Recombinant ICOS proteins, human ICOS-mFc or mouse ICOS-mFc (Chimerigen) were diluted in 1×PBS and added to Black Hi-bind plates (Griener) at 1 μg/ml, 50 μl/well. Recombinant PD-L1 proteins, human PD-L1-Flag-His or mouse-His were diluted in 1×PBS and added to Black Hi-bind plates (Griener) at 4 μg/ml, 50 μl/well. The plates were left overnight at 4° C. The next day plates were washed 3× with 300 μl/well of 1×PBS+0.1% Tween and blocked with 200 μl/well of 1×PBS+1% BSA blocking buffer for 1 hr at RT on a plate shaker. Plates were washed 3× with 300 μl/well of 1×PBS+0.1% Tween.
(§2) However, human-PD-L1 mAb² antibodies were diluted in 1×PBS+0.1% BSA buffer and diluted 1 in 2 from a starting working concentration of 0.066 μM over an 11 point titration. Titrated antibodies were added to the plates, 50 μl/well and left to incubate for 1 hr at R.T on a plate shaker. Plates were washed 3× with 300 μl/well of 1×PBS+0.1% Tween.
(§3) DELFIA® Eu-labelled Anti-human IgG(Perkin-Elmer) was diluted 1:500 in DELFIA Assay buffer (Perkin-Elmer) and added to the assay plate (50 μl/well), left to incubate for 1 hr at RT on a plate shaker. […] After incubation, assay was read on Envision plate reader (Perkin Elmer), Time-resolved fluorescence (TRF) was measured at 615 nm.

[2] = target: T1, mouse ICOS-mFc (Chimerigen); assay: DELFIA ELISA, coated mouse ICOS-mFc, mean
Method: as §1, §2, §3

[3] = target: T2, mouse ICOS expressed on CHO cells (mouse, UniProt Q9WVS0 21-141); assay: flow cytometry, CHO mouse ICOS cells, anti-human IgG AF647, N=1
T2 construct: the cell-expressed form may differ; also called mICOS; CHO mouse ICOS
T2 sequence: T1 sequence
Method: (§4) CHO-S cells transfected with either human ICOS or mouse ICOS were resuspended in FACS buffer (PBS+1% w/v BSA+0.1% w/v sodium azide) and transferred to a 96-well V-bottom plate (Greiner) at a density of 1×10⁵ cells per well. mAb and mAb² were titrated in FACS buffer, 1 in 3 dilution across 11 points from a starting working concentration of 400 nM. Plates were centrifuged at 300×g for 3 minutes, supernatant discarded and 50 μL mAb or mAb² solution were added to cells and incubated at 4° C. for 1 hour. Cells were washed with 150 μL of PBS and centrifuged at 300×g for 3 minutes, supernatant was discarded and cell pellet resuspended in 150 μL PBS added. This wash step was repeated twice. […] Cells were incubated for 1 hour at 4° C. in the dark. Cells were washed with 150 μL of PBS and centrifuged at 300 g for 3 minutes, supernatant was discarded and cell pellet resuspended in 150 μL PBS added. This wash step was repeated twice. Cells were fixed with 25 μL 4% v/v paraformaldehyde, incubated for 20 minutes at 4° C., cells were pelleted by centrifugation at 300×g and the supernatant discarded. Cells were washed with 150 μL of PBS and centrifuged at 300 g for 3 minutes, supernatant was discarded and cell pellet resuspended in 150 μL PBS added. This wash step was repeated. Pelleted cells were resuspended in 110 μL 1×PBS.

[4] = target: T2, mouse ICOS expressed on CHO cells; assay: flow cytometry, CHO mouse ICOS cells, anti-human IgG AF647, N=3
Method: as §4

[5] = target: T3, human ICOS-mFc (Chimerigen) (human, UniProt Q9Y6W8 21-140, limits assumed); assay: HTRF neutralisation of human B7-H2 binding to human ICOS-mFc, n3
T3 construct: Bought fusion; also called hICOS; recombinant human ICOS protein; not shown: mouse Fc
T3 sequence: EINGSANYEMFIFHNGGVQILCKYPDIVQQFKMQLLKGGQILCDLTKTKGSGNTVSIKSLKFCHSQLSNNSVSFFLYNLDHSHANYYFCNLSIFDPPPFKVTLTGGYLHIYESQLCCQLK
Method: (§5) 5 μl of human ICOS-mFc (Chimerigen) at 20 nM (5 nM final) or 5 μl of mouse ICOS-mFc (Chimerigen) at 4 nM (1 nM final) were added to relevant assay wells. Plate was incubated for 1 hour (hr) at room temperature (RT).
(§6) After incubation, assay was read on Envision plate reader (Perkin Elmer) using a standard HTRF protocol. 620 nm and 665 nm channel values were exported to Microsoft Excel and % Delta-F and % Neutralisation calculations performed. Titration curves and IC50 values [M] were plotted using Graphpad (Prism). IC50 values were calculated by first transforming the data using equation X=Log(X). The transformed data was then fitted using nonlinear regression, using fitting algorithm, log (inhibitor) vs. response-variable slope (four parameters).

[6] = target: T3, human ICOS-mFc (Chimerigen); assay: HTRF neutralisation of human B7-H2 binding to human ICOS-mFc, average
Method: as §5, §6

[7] = target: T4, Biotinylated human ICOS protein (human, UniProt Q9Y6W8 21-140, limits assumed, biotinylated); assay: avidity SPR (ProteOn), biotinylated hICOS on NLC chip, antibody analyte
T4 sequence: T3 sequence
Method: (§7) Biotinylated human ICOS protein diluted at 7.5 μg/mL in running buffer (1×HBS-EP+Buffer Technova, cat. No. H8022) was captured on a NLC sensor chip (Bio-Rad, cat No 1765021). The surface was then blocked using biocytin (Sigma Aldrich, cat No B1758) at 1 mg/mL.
(§8) The assay was carried out at 25° C.
(§9) The buffer injection (i.e. 0 nM) was used to double reference the sensorgrams. The analysis was carried out using the equilibrium model inherent to the ProteOn's analysis software for each mAb² construct.

[8] = target: T4, Biotinylated human ICOS protein; assay: avidity SPR (ProteOn), biotinylated hICOS on NLC chip, antibody analyte; apparent KD from equilibrium
Method: as §7, §8, §9

[9] = target: T1, mouse ICOS-mFc (Chimerigen); assay: HTRF neutralisation of mouse B7-H2 binding to mouse ICOS-mFc, n3
Method: as §5, §6

- EC50 [1]: 0.252 nM
- EC50 [2]: 0.289 nM
- EC50 [3]: 8.92 nM
- EC50 [4]: 11.9 nM
- IC50 [5]: 0.77 nM
- IC50 [6]: 0.56 nM
- koff [7]: 0.000244 s⁻¹
- Kd [8]: 0.9 nM
B1: STIM003_457 (bispecific antibody, V domains shown, not shown: a dimerising Fc or GST)
VH: EVQLVESGGGVVRPGGSLRLSCVASGVTFDDYGMSWVRQAPGKGLEWVSGINWNGGDTDYSDSVKGRFTISRDNAKNSLYLQMNSLRAEDTALYYCARDFYGSGSYYHVPFDYWGQGILVTVSS
VL: EIVLTQSPGTLSLSPGERATLSCRASQSVSRSYLAWYQQKRGQAPRLLIYGASSRATGIPDRFSGDGSGTDFTLSISRLEPEDFAVYYCHQYDMSPFTFGPGTKVDIK
notes: mAb^2 IgG1; also called ST1M003_457; STIM003_457 mAb^2

- EC50 [3]: 5.14 nM
- EC50 [4]: 6.97 nM
- IC50 [5]: 2.38 nM
- IC50 [9]: 6.32 nM
- IC50 [6]: 1.6 nM
- koff [7]: 0.000346 s⁻¹
- Kd [8]: 9.2 nM
B2: STIM001_457 (bispecific antibody, V domains shown, not shown: a dimerising Fc or GST)
VH: QVQVVQSGAEVKKPGASVKVSCKASGYTFSTFGITWVRQAPGQGLEWMGWISAYNGDTNYAQNLQGRVIMTTDTSTSTAYMELRSLRSDDTAVYYCARSSGHYYYYGMDVWGQGTTVTVSS
VL: DIVMTQSPLSLPVTPGEPASISCRSSQSLLHSNEYNYLDWYLQKPGQSPQLLIFLGSNRASGVPDRFSGSGSGTDFTLKITRVEAEDVGIYYCMQSLQTPLTFGGGTKVEIK
notes: mAb^2 IgG1; also called STIM001_457 mAb^2
